The values that follow come from patent US20200377595A1 (Chugai, published 2020).

The target of assay [1] is T1, biotin-labeled human CD137 fused to human IgG1 Fc fragment (human, biotin-labeled).
T1 construct: also called human CD137-Fc; biotin-human CD137-Fc
In words: bead ELISA; no competitor.

Assay [2] deals with T2, biotin-labeled cynomolgus monkey CD137 fused to human IgG1 Fc fragment (cynomolgus monkey; human, UniProt Q07011 24-186, limits assumed, biotin-labeled).
T2 construct: also called cyno CD137-Fc; not shown: human IgG1 Fc fragment
T2 chain: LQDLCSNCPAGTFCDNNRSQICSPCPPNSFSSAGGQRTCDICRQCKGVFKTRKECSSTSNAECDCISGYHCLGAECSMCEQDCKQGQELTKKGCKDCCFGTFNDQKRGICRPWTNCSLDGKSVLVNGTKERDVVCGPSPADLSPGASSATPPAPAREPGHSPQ
In words: ELISA, IgG.

B1: dBBDu181 (antibody, IgG1, V domains shown)
VH: QVQLVESGGGLVQPGRSLRLSCAASGFTFSNAWMHWVRQAPGKGLEWIAQIKDRGNNYNNYYAPSVKGRFTISRDDSKNSIYLQMNSLKTEDTAVYYCHYVHYATASTLLGAYGVDAWGQGTTVTVSS
VL: DIVMTQSPLSLPVTPGEPASISCRSSQSLVHSNRNTYLHWYQQKPGQAPRLLIYKVSNRFSGVPDRFSGSGSGTDFTLKISRVEAEDVGVYYCGQGTQVPYTFGQGTKLEIK
notes: IgG1
In assay [1], B1 gave an ELISA signal of 3240. Further, in assay [2], the binding result is given as “binds”.
